Test results as given in article PMC6555819, “Comprehensive study of nuclear receptor DNA binding provides a revised framework for understanding receptor specificity”.

What was measured:
[1] = biological target: THRa:RXRa (Homo sapiens, UniProt P10827;P19793 full;full); experiment: no ligand; PBM; 90 nM : 90 nM RXRa; PBS pH 7.4, 2% milk, 0.02% Triton X-100, 1 mM DTT, BSA, 0.4 mg/ml salmon testes DNA; details: tags: His kept;His cleaved; copies: 1;1; label: surface-attached array probe
[2] = biological target: VDR:RXRa (Homo sapiens, UniProt P11473;P19793 full;full); experiment: no ligand; PBM; 270 nM : 90 nM RXRa; PBS pH 7.4, 2% milk, 0.02% Triton X-100, 1 mM DTT, BSA, 0.4 mg/ml salmon testes DNA; details: tags: His kept;His cleaved; copies: 1;1; label: surface-attached array probe
In short: (§1)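 For binding z-scores, the reference was random background probes on custom Agilent 4×180K protein-binding microarrays. These arrays were incubated 1 h with ligand-free nuclear receptor dimers in PBS pH 7.4, 2% milk, 0.02% Triton X-100, 1 mM DTT, 0.2 mg/mL BSA and 0.4 mg/ml salmon testes DNA. Fluorescence was scanned after antibody detection of each partner (one per run) and regression-normalized.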

[3] = biological target: PXR:RXRa (Homo sapiens, UniProt O75469;P19793 full;full); experiment: as above; details: tags: His kept;His cleaved; copies: 1;1; label: surface-attached array probe
In short: as §1

[4] = biological target: RARg:RXRa (Homo sapiens, UniProt P13631;P19793 full;full); experiment: as above; details: tags: His kept;His cleaved; copies: 1;1; label: surface-attached array probe
In short: as §1

[5] = biological target: FXR:RXRa (Homo sapiens, UniProt Q96RI1;P19793 full;full); experiment: as above; details: tags: His kept;His cleaved; copies: 1;1; label: surface-attached array probe
In short: as §1

[6] = biological target: LXRb:RXRa (Homo sapiens, UniProt P55055;P19793 full;full); experiment: as above; details: tags: His kept;His cleaved; copies: 1;1; label: surface-attached array probe
In short: as §1

[7] = biological target: LXRa:RXRa (Homo sapiens, UniProt Q13133;P19793 full;full); experiment: as above; details: tags: His kept;His cleaved; copies: 1;1; label: surface-attached array probe
In short: as §1

[8] = biological target: RXRa (Homo sapiens, UniProt P19793); experiment: no ligand; PBM; 180 nM; PBS pH 7.4, 2% milk, 0.02% Triton X-100, 1 mM DTT, BSA, 0.4 mg/ml salmon testes DNA; details: tags: His cleaved; chain copies: 2; label: surface-attached array probe
[9] = biological target: RARb:RXRa (Homo sapiens, UniProt P10826;P19793 full;full); experiment: no ligand; PBM; 270 nM : 90 nM RXRa; PBS pH 7.4, 2% milk, 0.02% Triton X-100, 1 mM DTT, BSA, 0.4 mg/ml salmon testes DNA; details: tags: His kept;His cleaved; copies: 1;1; label: surface-attached array probe
In short: as §1

[10] = biological target: PPARa:RXRa (Homo sapiens, UniProt Q07869;P19793 full;full); experiment: as above; details: tags: GST kept;His cleaved; copies: 1;1; label: surface-attached array probe
In short: as §1

LXRb:RXRa, sequence (P55055 whole entry, chain 1 of 2): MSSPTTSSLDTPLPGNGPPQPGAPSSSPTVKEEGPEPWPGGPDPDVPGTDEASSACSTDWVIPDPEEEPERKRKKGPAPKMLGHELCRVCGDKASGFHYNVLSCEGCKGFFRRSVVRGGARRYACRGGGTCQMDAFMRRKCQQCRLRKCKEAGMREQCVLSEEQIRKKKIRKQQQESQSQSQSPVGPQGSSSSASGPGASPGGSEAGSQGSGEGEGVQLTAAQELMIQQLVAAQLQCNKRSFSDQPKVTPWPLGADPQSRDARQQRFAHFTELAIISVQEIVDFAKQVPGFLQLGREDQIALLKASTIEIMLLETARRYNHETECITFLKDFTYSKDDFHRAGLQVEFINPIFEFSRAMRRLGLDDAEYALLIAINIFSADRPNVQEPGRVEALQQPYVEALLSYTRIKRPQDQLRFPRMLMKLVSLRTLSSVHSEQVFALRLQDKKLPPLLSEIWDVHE
LXRb:RXRa, sequence (P19793 whole entry, chain 2 of 2): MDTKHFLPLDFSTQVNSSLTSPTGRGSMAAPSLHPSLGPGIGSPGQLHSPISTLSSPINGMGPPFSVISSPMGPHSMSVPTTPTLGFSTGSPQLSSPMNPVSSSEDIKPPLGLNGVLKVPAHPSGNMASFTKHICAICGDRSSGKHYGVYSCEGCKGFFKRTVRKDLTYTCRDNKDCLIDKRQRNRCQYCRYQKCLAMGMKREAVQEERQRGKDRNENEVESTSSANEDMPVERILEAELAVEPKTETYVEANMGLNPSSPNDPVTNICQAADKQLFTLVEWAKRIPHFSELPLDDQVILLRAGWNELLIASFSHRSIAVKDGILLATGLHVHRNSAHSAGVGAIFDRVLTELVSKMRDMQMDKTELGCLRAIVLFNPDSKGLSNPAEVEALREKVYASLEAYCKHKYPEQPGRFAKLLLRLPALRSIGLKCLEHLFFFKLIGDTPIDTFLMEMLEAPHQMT
THRa:RXRa, sequence (P10827 other isoform, or with tags, fused parts or gaps, chain 1 of 2): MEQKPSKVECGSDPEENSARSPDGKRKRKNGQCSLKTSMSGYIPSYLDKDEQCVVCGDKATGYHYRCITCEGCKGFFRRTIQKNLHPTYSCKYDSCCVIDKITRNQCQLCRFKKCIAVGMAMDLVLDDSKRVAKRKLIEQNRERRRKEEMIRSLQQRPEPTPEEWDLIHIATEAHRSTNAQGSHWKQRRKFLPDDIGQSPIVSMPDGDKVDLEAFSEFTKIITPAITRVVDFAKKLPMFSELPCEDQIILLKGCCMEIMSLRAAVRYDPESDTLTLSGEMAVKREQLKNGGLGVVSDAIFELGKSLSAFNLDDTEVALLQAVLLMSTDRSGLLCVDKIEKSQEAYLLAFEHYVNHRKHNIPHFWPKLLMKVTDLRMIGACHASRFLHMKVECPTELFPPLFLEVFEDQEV
THRa:RXRa, sequence (P19793 whole entry, chain 2 of 2): as the sequence (P19793 whole entry, chain 2 of 2) above
FXR:RXRa, sequence (Q96RI1 whole entry, chain 1 of 2): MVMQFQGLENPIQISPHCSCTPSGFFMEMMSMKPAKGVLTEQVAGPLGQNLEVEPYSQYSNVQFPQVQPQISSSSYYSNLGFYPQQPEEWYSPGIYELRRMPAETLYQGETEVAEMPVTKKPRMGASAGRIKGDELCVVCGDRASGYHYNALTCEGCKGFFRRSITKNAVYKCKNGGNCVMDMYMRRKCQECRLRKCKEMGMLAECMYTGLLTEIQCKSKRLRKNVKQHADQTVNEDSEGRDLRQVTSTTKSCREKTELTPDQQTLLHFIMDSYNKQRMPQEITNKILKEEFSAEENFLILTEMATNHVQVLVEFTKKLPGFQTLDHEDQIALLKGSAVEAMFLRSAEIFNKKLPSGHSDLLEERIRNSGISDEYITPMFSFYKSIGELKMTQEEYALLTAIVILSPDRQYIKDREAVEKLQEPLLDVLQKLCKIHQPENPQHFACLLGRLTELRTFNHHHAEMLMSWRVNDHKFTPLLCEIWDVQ
FXR:RXRa, sequence (P19793 whole entry, chain 2 of 2): as the sequence (P19793 whole entry, chain 2 of 2) above
PXR:RXRa, sequence (O75469 whole entry, chain 1 of 2): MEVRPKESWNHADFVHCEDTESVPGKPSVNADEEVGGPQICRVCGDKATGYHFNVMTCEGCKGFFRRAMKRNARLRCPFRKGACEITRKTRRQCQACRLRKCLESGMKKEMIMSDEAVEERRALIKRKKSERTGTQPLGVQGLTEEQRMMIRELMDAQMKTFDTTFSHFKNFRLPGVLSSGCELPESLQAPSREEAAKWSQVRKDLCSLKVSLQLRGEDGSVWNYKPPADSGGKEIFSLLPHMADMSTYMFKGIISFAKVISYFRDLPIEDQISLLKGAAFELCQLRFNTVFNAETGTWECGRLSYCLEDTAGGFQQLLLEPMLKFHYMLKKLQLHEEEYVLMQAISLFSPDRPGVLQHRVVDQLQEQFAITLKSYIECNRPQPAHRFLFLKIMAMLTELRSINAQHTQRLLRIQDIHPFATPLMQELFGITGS
PXR:RXRa, sequence (P19793 whole entry, chain 2 of 2): as the sequence (P19793 whole entry, chain 2 of 2) above
LXRa:RXRa, sequence (Q13133 whole entry, chain 1 of 2): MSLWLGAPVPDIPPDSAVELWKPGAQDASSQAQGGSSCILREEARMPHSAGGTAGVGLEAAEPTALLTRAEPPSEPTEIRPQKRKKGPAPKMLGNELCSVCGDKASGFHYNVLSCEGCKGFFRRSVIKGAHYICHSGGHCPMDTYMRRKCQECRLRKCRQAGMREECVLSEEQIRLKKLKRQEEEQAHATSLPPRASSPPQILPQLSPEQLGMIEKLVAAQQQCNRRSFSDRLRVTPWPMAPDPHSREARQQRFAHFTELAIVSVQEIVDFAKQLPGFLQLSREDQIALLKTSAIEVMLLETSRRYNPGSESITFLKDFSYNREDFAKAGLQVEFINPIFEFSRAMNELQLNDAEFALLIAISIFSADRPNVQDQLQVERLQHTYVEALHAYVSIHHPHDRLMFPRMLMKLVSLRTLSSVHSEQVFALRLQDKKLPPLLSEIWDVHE
LXRa:RXRa, sequence (P19793 whole entry, chain 2 of 2): as the sequence (P19793 whole entry, chain 2 of 2) above

Row | Binder | binding signal [1] | binding signal [2] | binding signal [3] | binding signal [4] | binding signal [5] | binding signal [6] | binding signal [7] | binding signal [8] | binding signal [9] | binding signal [10]
1 | NRC3_wobSeed142_DR5_G13C_o1 (dsDNA) DNA 1: GCATACCAAGGTCATCGTGAGGTCGTTGATACTAACGCGATTGACAGCGTAGAATGAAGG DNA 2: CCTTCATTCTACGCTGTCAATCGCGTTAGTATCAACGACCTCACGATGACCTTGGTATGC | 5.13 PBM z-score against 500 random probes | 7.1 PBM z-score against 500 random probes | 6.51 PBM z-score against 500 random probes | 7.52 PBM z-score against 500 random probes |  |  |  |  |  | 
2 | NRC3_wobSeed97_DR4_A18G_o1 (dsDNA) DNA 1: GCCAAACTAGGTCACGAGAGGTCAAAGTCGAATGACGCGATTGACAGCGTAGAATGAAGG DNA 2: CCTTCATTCTACGCTGTCAATCGCGTCATTCGACTTTGACCTCTCGTGACCTAGTTTGGC | 5.49 PBM z-score against 500 random probes | 7.3 PBM z-score against 500 random probes | 7.59 PBM z-score against 500 random probes |  | 7.96 PBM z-score against 500 random probes |  |  |  |  | 
3 | NRC3_random_hg19_322_o1 (dsDNA) DNA 1: GCTGTAAAGTGGTCCACTGACAGCTTCCACTCTTCTGCGATTGACAGCGTAGAATGAAGG DNA 2: CCTTCATTCTACGCTGTCAATCGCAGAAGAGTGGAAGCTGTCAGTGGACCACTTTACAGC | -0.7 PBM z-score against 500 random probes | -0.74 PBM z-score against 500 random probes | -0.56 PBM z-score against 500 random probes |  |  | -0.71 PBM z-score against 500 random probes |  |  |  | 
4 | NRC3_wobSeed117_DR4_A23T_o1 (dsDNA) DNA 1: GCCGTCAAAGTTCAACTAAGGTTACGTAAAGCACGCGCGATTGACAGCGTAGAATGAAGG DNA 2: CCTTCATTCTACGCTGTCAATCGCGCGTGCTTTACGTAACCTTAGTTGAACTTTGACGGC | 5.54 PBM z-score against 500 random probes |  | 6.82 PBM z-score against 500 random probes |  |  |  | 7.31 PBM z-score against 500 random probes |  |  | 
5 | NRC3_wobSeed87_DR3_T8G_o1 (dsDNA) DNA 1: GCCGAACGAGGTCATCCAGGACAGTGAATACATTGAGCGATTGACAGCGTAGAATGAAGG DNA 2: CCTTCATTCTACGCTGTCAATCGCTCAATGTATTCACTGTCCTGGATGACCTCGTTCGGC | 4.78 PBM z-score against 500 random probes | 6.85 PBM z-score against 500 random probes | 6.36 PBM z-score against 500 random probes |  | 8.44 PBM z-score against 500 random probes |  |  |  |  | 
6 | NRC3_wobSeed77_DR3_T22C_o1 (dsDNA) DNA 1: GCACTTACGGGTCAACGAGGTCATAGCACGCGTATAGCGATTGACAGCGTAGAATGAAGG DNA 2: CCTTCATTCTACGCTGTCAATCGCTATACGCGTGCTATGACCTCGTTGACCCGTAAGTGC | 4.97 PBM z-score against 500 random probes | 8.66 PBM z-score against 500 random probes | 6.59 PBM z-score against 500 random probes |  |  | 6.07 PBM z-score against 500 random probes |  | 7.88 PBM z-score against 500 random probes |  | 
7 | NRC3_random_hg19_419_o1 (dsDNA) DNA 1: GCAGAGCAGACTTCCTGTGTATGTTAGGATGAAACCGCGATTGACAGCGTAGAATGAAGG DNA 2: CCTTCATTCTACGCTGTCAATCGCGGTTTCATCCTAACATACACAGGAAGTCTGCTCTGC | -0.56 PBM z-score against 500 random probes |  | -0.62 PBM z-score against 500 random probes |  | -0.65 PBM z-score against 500 random probes |  | -0.87 PBM z-score against 500 random probes |  |  | 
8 | NRC3_wobSeed85_DR3_G15C_o1 (dsDNA) DNA 1: GCCGTCCAAGGTCACAGAGGTCAGTGAATGCCGAGTGCGATTGACAGCGTAGAATGAAGG DNA 2: CCTTCATTCTACGCTGTCAATCGCACTCGGCATTCACTGACCTCTGTGACCTTGGACGGC | 4.91 PBM z-score against 500 random probes |  | 6.95 PBM z-score against 500 random probes | 7.46 PBM z-score against 500 random probes | 7.83 PBM z-score against 500 random probes | 5.81 PBM z-score against 500 random probes |  |  | 5.99 PBM z-score against 500 random probes | 6.53 PBM z-score against 500 random probes
9 | NRC3_wobSeed85_DR3_G24T_o1 (dsDNA) DNA 1: GCCGTCCAAGGTCAGAGAGGTCATTGAATGCCGAGTGCGATTGACAGCGTAGAATGAAGG DNA 2: CCTTCATTCTACGCTGTCAATCGCACTCGGCATTCAATGACCTCTCTGACCTTGGACGGC | 4.8 PBM z-score against 500 random probes | 8.16 PBM z-score against 500 random probes | 7.16 PBM z-score against 500 random probes |  |  |  |  |  | 5.65 PBM z-score against 500 random probes | 
10 | NRC3_random_hg19_103_o1 (dsDNA) DNA 1: GCTCAGGAGTTCGAGAACAGCCTGGCTAACATGGCGGCGATTGACAGCGTAGAATGAAGG DNA 2: CCTTCATTCTACGCTGTCAATCGCCGCCATGTTAGCCAGGCTGTTCTCGAACTCCTGAGC | -0.5 PBM z-score against 500 random probes |  | 0.28 PBM z-score against 500 random probes |  |  |  | 0.13 PBM z-score against 500 random probes |  |  | 
